Assay results reported in PMC3004248.

Target: one-twelfth protomer of the giant extracellular haemoglobin from Glossoscolex paulistus (cyanomet HbGp) (Glossoscolex paulistus)
Experiment: crystal structure; cyanomet-HbGp, whole particle; crystals from 1.2 M sodium citrate, 2.5 mM CaCl2, 50 mM Tris-HCl pH 7.5; space group I222, data to 3.2 Å; molecular replacement with the one-twelfth protomer of L. terrestris erythrocruorin (2gtl); preliminary, not refined

stoichiometry N (protomers per full particle): 12
Substance: one-twelfth protomer of the giant extracellular haemoglobin from Glossoscolex paulistus (cyanomet HbGp) (complex)
